Among the data in patent US20220332804A1 (CSL INNOVATION, published 2022) are Fold diff values, retold here.

Changes are numbered by the printed parent chain.

Experiment in all cases: SPR, KD relative to WT C2;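 note: biacore SPR at 37 °C, anti-C2 mAbs captured on anti-human IgG chips with alanine or serine point mutants of C2 as analyte, KD from 1:1 fit compared with wild-type C2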
One test concerns the target T1, human C2 L279A (human, UniProt P06681 21-752).
T1 sequence: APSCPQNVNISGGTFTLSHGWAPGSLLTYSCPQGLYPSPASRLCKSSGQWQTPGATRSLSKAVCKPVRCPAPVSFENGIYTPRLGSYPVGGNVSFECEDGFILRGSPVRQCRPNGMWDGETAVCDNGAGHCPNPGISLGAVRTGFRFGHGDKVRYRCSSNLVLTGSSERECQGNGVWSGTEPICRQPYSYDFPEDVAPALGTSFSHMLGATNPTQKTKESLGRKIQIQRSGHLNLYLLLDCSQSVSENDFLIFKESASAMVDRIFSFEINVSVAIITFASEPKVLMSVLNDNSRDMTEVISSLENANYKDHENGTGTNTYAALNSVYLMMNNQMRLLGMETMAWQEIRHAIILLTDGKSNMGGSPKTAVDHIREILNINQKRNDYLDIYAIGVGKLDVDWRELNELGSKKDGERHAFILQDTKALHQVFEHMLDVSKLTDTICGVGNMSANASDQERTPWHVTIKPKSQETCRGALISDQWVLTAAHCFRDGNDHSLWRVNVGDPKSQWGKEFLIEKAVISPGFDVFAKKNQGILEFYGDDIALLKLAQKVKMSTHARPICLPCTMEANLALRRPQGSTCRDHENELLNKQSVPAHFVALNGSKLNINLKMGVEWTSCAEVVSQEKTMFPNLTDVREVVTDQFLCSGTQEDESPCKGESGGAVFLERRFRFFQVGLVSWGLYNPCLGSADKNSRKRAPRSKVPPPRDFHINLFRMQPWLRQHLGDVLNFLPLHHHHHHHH

A further test deals with T2, human C2 V418A (human, UniProt P06681 21-752).
T2 sequence: T1 sequence with A259L, V398A

In the next test the target is T3, human C2 A470S (human, UniProt P06681 21-752).
T3 sequence: T1 sequence with A259L, A450S

In the next test the target is T4, human C2 G432A (human, UniProt P06681 21-752).
T4 sequence: T1 sequence with A259L, G412A

B1: RF16-242 (antibody, human IgG4 S228P, lambda, V domains shown)
VH: EVQLLQSGAEVKKPGESLKISCKGSGYSFTSYWIGWVRQMPGKGLEWMGIIYPGDSDTRYSPSFQGQVTISADKSISTAYLQWSSLKASDTAMYYCARRGHYGDYFDYWGQGTLVTVSS
VL: SYELTQPPSVSVSPGQTARITCSGDALPKKYAYWYHQKSGQAPVLVIYEDRRRPSEIPERFSGSSSGTMATLTITGAQVEDEGVYFCYSRDRAGNQRVFGGGTQLTVLG
notes: pH-dependent anti-C2 antibody from a phage display library
Regarding B1, the Fold diff with human C2 L279A was found to be 7 fold; with human C2 V418A, 1 fold; in the test with human C2 A470S, 1 fold; with human C2 G432A, 1 fold.
